Source: the DeepSol protein solubility set

Experiment: soluble on expression in E. coli; label from the status in PepcDB or PDB records

Soluble on expression in E. coli, not soluble:
LTGPQLAVVGSRQPSPYALRAMRRLLPQVVRQQVCLVSGLAQGVDTLAHQAALAHRGKTIAVIGTGLDHCYPAGNRDLMTELAHHHLVISEYPWGTAGARHHFPERNRIIAGLSQSTLVVEAARHSGSLITANIALQENRNVLAVPGSLDNPNSVGTNELILAGAKPILNSEHIIEEVLVDKRL
MGSDKIHHHHHHMDLGAPIGAHGNQPETEAATQCEIVLQGPTCGFPSWTRHCNIDCIRDFQPFDRLMKQGQRKTKLEFHNDGRLLAAQGDDICGPDLAFYRVTLSLQQRFDRGVEILFTFHPGHACPGSVSMAMCPRLIFMRNTMNRLLSRAQRSGDRRHALGHSGAVPATLRPFLSLICFCLVAVWMATPLRAACSGLDLRESAAPGMWAEIEAEIALTPFARGLSWVATRGDRRLHIIGTMHLNDPRHDALVAHMAPAIQAADAVLLEVNRADKARLERTLAETPSLIFITEGPTLIDRLPPEEWDEIAERAGAAGIPPFMAAKMRPWFLSLSMSVPLCARAIEDVTDGLDMKLMTLAERAGVETLSLEDPLGLFQLFDATPIEEQIKELRSYIAMAGVGADDFYTMVESYFDGEVQAYVLLQLKQFLTSESDLSVAERQAQVDDLLEALLYQRNRDWIPVIEATAGNRLVIAVGAAHLPGEAGVLALLEAEGYQIEEALR
LGGVAPEQVAYAVEQAGKRLQERDNAGVKVRPARLTDLDALEGMVAYWAGLGENLPRNRNELVRDIGSFAVAEHHGEVTGCASLYVYDSGLAEIRSLGVEAGWQSQGQGKAIVQHLVEKAREMAIKKVFVLTRVPEFFMKQDFIPTSRSLLPEKVLKDCDQCPRQH
MTLYSFRLGLLLFCSLLFGCTAPTPAPVSGLGKDYNKVERGSYRGSYYEVKKGDTLYFIAYLTDKDVNDLISYNDLAPPYTIHPGQKIKLWLPNYTPPAYGGTGGAATVAVASSTSASVAKAATTATVAQTVSKSSNTKNVQNGSTNSQNLTKKDPVKTVDQTKTKEYVEPVGKQNVNVNVAKAKPSDEKIAKWLWPTKGRVIKNFSAGDQGNKGIDIAGQRGQAVVATADGTVVYSGNALRGYGNLIIIKHNEHYLSAYAHNDQLLAKEGQTVQAGQKIATMGSSGTNSVRLHFEIRYQGKSVNPKRYLP
MIIPMNNKHPLPTPLVSIIIPVYNVEKYLYRCVKSILSQDYYDYEIILVDDGSTDGSGMICDELTEQHGHISVIHKPNGGQGSARNAGLNHAKGKYIWFIDSDDYISPHSLSVIMSQITQGDFDALFFPYIKSNGNILIGEAVGKYHAGVYRGQQLLLEGLVNMSMCTIVSLRSRWIDNRIFFREDIHFEDFEINPRVLKFLERAIFLDSNIIPYIYYTRLGSTMNQLDPQKRMRQTEDFLRIEKSWKEWFNLDSPEPNSYDMLMLRTGTNMLHRNLLNFVRNSNFSISTKLKLYAQYRKKGVFSWFYNGYRRDPYVGCTSVRVFWNTIGRSYILFSLFSIVEEIWKKIRK
MGSDKIHHHHHHISNNLANSSTIGYKTSNASFYSLVTGTGSTSNFTGAGVVASATQNVINQGVIVGTQNVTDLAVDGKGMFIVTDRSGSNELYYTRAGDFYPNADGDLVNSNNYYLQGYPTDRNGVPLTNTGNSGASLETINLAGATGAAKATSEMSIQAVLPAQATAGDSTAVPPVAAYTSSSDVEIYDSLGVAHTMTVKWTKMSDTKWTMTLYDPKLSSDMTGDATGAISSTTTGVTDVPANAGPPATSHGIAVDVEFTDQGLLKTPSVLALKITPDASNGTGAAISEIALNLGTAGKANGLSTYSNEDSDGKPAVDLKKVVQDGVTYGTYYSNTISKAGLVYANFTNGISYPIYQVPLAMFSNVNGLEAVSGTAYSATVKSGTPTYVTAGTGGSGGVSSGSVESSTVDTAAEFSKLIVSQQAYSAATQIISSNQEMFQNLISAKR
GNFTYAHSEFLKYEEPAYNEKYRSHIGQSLNQWYGLIAERLFIDEYDVQNSPKQTFGEYGAGDIKYRDVNGDGQITDADMVPLGYPTVPEIVYGFGFSFGNQRFDISAFFQGSARSSFWIDAKATSPFQHINPTDDDPYHQDIPLLKAYANDHWSESNRNLYAMWPRLSTTVIENNVRTSSWFMRNGAFLRLKTLEVGYTLPESWTKKAYISSARVYCSGNNLLLLSGFKLWDIEMGGSGLGYPIQRVINLGVQINF

Soluble on expression in E. coli, soluble:
MKELETRIIDIDVEKLRETLNKLGAKNVKRENQTNDIFDFPDRKLLDKKGYARIRTVEDLINNKTVYFMTTKKMLSQDKFKVMEENETIIEDGAMGKNIFKSLGLELFETIKKYRESYKYKDSLIEIDINDPSFCPFPYIEIETSSEEKLNEILIDLGYSMEDTTSKTIYEILKDKGISPDSNKKGLLEHHHHHH
MSLKIAILYREEREKEGEFLKEKISKEHEVIEFGEANAPGRVTADLIVVVGGDGTVLKAAKKAADGTPMVGFKAGRLGFLTSYTLDEIDRFLEDLRNWNFREETRWFIQIESELGNHLALNDVTLERDLSGKMVEIEVEVEHHSSMWFFADGVVISTPTGSTAYSLSIGGPIIFPECEVLEISPIAPQFFLTRSVVIPSNFKVVVESQRDINMLVDGVLTGKTKRIEVKKSRRYVRILRPPEYDYVTVIRDKLGYGRRIEEGGSHHHHHH
MKLLSTYRLQPMKFSEIRNRLDYFVELGVTHLYLSPVLKARPGSTHGYDVVDYNTINDELGGEEEYIRLIDEAKSKGLGIIQDIVPNHMAVHHTNWRLMDVLKKGRHSRYYNYFDFYEEEEKIRIPILGDRNFKITYVNDEPYLDYYGNLFPINDEGRNYLNDIEKLLKVQYYELVDWRDYPSYRRFFAVNELIAVRQELEWVFEDSHSKILSFEVDGYRIDHIDGLFKPEEYLRRLKNKIGNKHIFVEKILSIGEKLRWDFIDGTTGYDFLNYSNLLFTDNEDKMTEIYKNILDIDLDELVKETKKKIIDTLFKHDIERISMMLGVNYEEIKEFLSCLKVYRTYITENDFRDEEIIRNCSQKVYESMKKNVTAFMKLQQYMPAVFAKAYEDTVLFIYNRLISLNEVGSDLHYYSISCDKFHEFNLKRVGTLSFNATSTHDTKFSEDVRMRISAISEIPDEWAKKVNEWHNILNPNIDKNDEYRLYQTIVGSFDGFNNEYKERLKAHMIKALREAKVHTDWVNVNTEYEKKMTYLIDKMFNNEKFMESFLEFESKIDKMGKVKSLSLVALKITSPGVADFYQGLENFRYLLTDPDNRRPVVFSELPKRYEEGLFNNGRIKAYVTKVLLNLRKSMKDFFINSEYKPLKLQKGLCGFMRGDKVLVIVKTLNRDYDIEIDGEYTDVITDETVRGRVKVDKLPLILVK
GMDTAKTKPFDEMFLQDEVIRPIYAEYAAWLQDVPHQQLESKRQEAELLFRRVGITFNVYGEDAGAERLIPFDVVPRILSASEWARLSDGAIQRVKALNMFLHDVYHDQEIIKAGIVPSSILANAQYRPEMFGVDVPGGVYAHIAGVDLVRTGENDFYVLEDNLRTPSGVSYMLENRKMMMRLFPELFRRYPVAPVEHYPQVLLNNLRAVAQAGVHEPTVVLLTPGAYNSAYFEHAFIAQQMGIELVEGQDLFVRNNAVYMRTTEGPKRVDVIYRRIDDDFIDPLSFRPDSMLGVPGLLSVYRNGGVTLANAVGTGVADDKDTYIYVPEMIRFYLGEEPILSNVPTYQLSKADDLKYVLDNLAELVVKEVQGSGGYGMLVGPAASKQELEDFRQRILANPANYIAQPTLALSTCPTLVETGIAPRHVDLRPFVLSGKTVSLVPGALCRVALREGSLVVNSSQGGGTKDTWILKD
MLTPTPDSSPRSTSSPSQSKNGSFTPRTANILKPLMSPPSREEIMATLLDHD
KEAIVFSQKTTIDQLHNSLNAASKTGNSNEVLQDPHIGDMYGSVTPLRPQVTRMLGKYAKEKEDMLSLRQVLANAERSYNQLMDRAAN
MSDRATTTASLTFESLYGTHHGWLKSWLTRKLQSAFDADDIAQDTFLRVMVSETLSTIRDPRSFLCTIAKRVMVDLFRRNALEKAYLEMLALMPEGGAPSPEERESQLETLQLLDSMLDGLNGKTREAFLLSQLDGLTYSEIAHKLGVSISSVKKYVAKAVEHCLLFRLEYGL
MAMSFEWPWQYRFPPFFTLQPNVDTRQKQLAAWCSLVLSFCRLHKQSSMTVMEAQESPLFNNVKLQRKLPVESIQIVLEELRKKGNLEWLDKSKSSFLIMWRRPEEWGKLIYQWVSRSGQNNSVFTLYELTNGEDTEDEEFHGLDEATLLRALQALQQEHKAEIITVSDGRGVKFF
MKTYRIRKPKIVVVGGGTGLPVILKSLRNQSVDITAVVTVADDGGSSGELRSSINNMTPPGDLRNVLVALSDMPQLYEDIFQYRFDKSDSHFANHAIGNLIIAAVSEMRGSTYEAIQLLSKMMHVDGRIYPSSERPLTLHAVFKDGSVAVGESKIALDRKTIDHVFVTNTHGEEQPRAARKVVKAIEEADMVVLGPGSLFTSILPNLVITEIGEAIKQTAAEVVYICNIMTQKGETEHFTDADHVRVLNEHLQAQFVDTVLVNTEKVPENYMDPEIYDEYLVQVKHDFQGLREEGCRVISTDFLELRDGGVFHDGEKVVEELFRIVFGTKYLEHHHHHH
MSLEKKFVIWGRNPIIEALRAGRNLEKIYVAHDSHPPKELLELAKKRGVKVQRISRKKVEELAGTKKTQGVVALLSPVNYVSPHELFKECIEKKSFFIVIDHITDPQNVGNLLRTCEVLGGVGALISKDRTSPINETVVKASSGAVFHLKISKVSSLSRELKNFQKMGGWVFAVEKGGKDIREVDIPLPVALVLGSEDKGVSKSVLDISDQIVTIPMKGKVTSLNVGSAGAIAMWETAKKILEGHHHHHH
MSLIVITGASSGLGAELAKLYDAEGKATYLTGRSESKLSTVTNCLSNNVGYRARDLASHQEVEQLFEQLDSIPSTVVHSAGSGYFGLLQEQDPEQIQTLIENNLSSAINVLRELVKRYKDQPVNVVMIMSTAAQQPKAQESTYCAVKWAVKGLIESVRLELKGKPMKIIAVYPGGMATEFWETSGKSLDTSSFMSAEDAALMIHGALANIGNGYVSDITVNREGHHHHHH
MAKKKKEILFCDYYEDWVETYKVGAIEDVTLNKYYVAARQLRDICPKLLMSDFSRKDYQLIMNEYGKTHEKQTAKDFHHHIKAAILDAYHDGLLKSDPTYRAVIKGKEPGKKKLEHHHHHH
MKMKLAVLPGDGIGPEVMDAAIRVLKTVLDNDGHEAVFENALIGGAAIDEAGTPLPEETLDICRRSDAILLGAVGGPKWDHNPASLRPEKGLLGLRKEMGLFANLRPVKAYATLLNASPLKRERVENVDLVIVRELTGGLYFGRPSERRGPGENEVVDTLAYTREEIERIIEKAFQLAQIRRKKLASVDKANVLESSRMWREIAEETAKKYPDVELSHMLVDSTSMQLIANPGQFDVIVTENMFGDILSDEASVITGSLGMLPSASLRSDRFGMYEPVHGSAPDIAGQGKANPLGTVLSAALMLRYSFGLEKEAAAIEKAVDDVLQDGYCTGDLQVANGKVVSTIELTDRLIEKLNNSAAGPRIFQ
MKDVVEYLVRYLVDRPEAVRVQVRRGKEGTVYLVEVAPEDKGRLIGKGGRVIESLRTVVRAYAKRKVGVEVR
KIGYGKANPTTRLWVGGLGPNTSLAALAREFDRFGSIRTIDHVKGDSFAYIQYESLDAAQAACAKMRGFPLGGPDRRLRVDFAK
YPFYAQYNYDSPREATGKIVCANCHLAKKTVEIEVPQAVLPDTVFKAVVKVPYDLDIQQVQADGSPSGLNVGAVLMLPEGFKLAPPERVDEELMEEVGDFYYLVTPYSETDENILLAGPLPGEDYQEMIFPILSPNPATDAGVYFGKYSIHLGGNRGRGQVYPTGELSNNNAFSASIAGTIAAIEDNGFGFDVTIQPEDGDAVVTSILPGPELIVAVGDTVEAGQLLTTNPNVGGFGQMDSEIVLQSSS
